According to patent publication US20240197906A1, “ANTI-cMET ANTIBODY DRUG CONJUGATES AND [sequence] USES THEREOF” (Mythic Therapeutics, Inc., priority 2022, published 2024):
“Also recorded” adds a separate entry of the source. Blank lines part the entries; values can stand above or below the molecule they belong to. Non-standard residues stand in square brackets, D forms with d. Residues, ends and D or L forms follow the SMILES beside them. *: point of attachment. Dolaproine = CO[C@@H]([C@@H]1CCCN1)[C@@H](C)C(=O)O; Dil = CC[C@H](C)[C@H](NC)[C@@H](CC(=O)O)OC; X1 = C[C@@H](N*)[C@@H](O)c1ccccc1; NMeV = CN[C@H](C(=O)O)C(C)C

Experiments:
[1] = test system: EBC-1 cells; assay: Complement dependent cytotoxic assay; type: cell-based; conditions: 30% human complement
Experimental: Complement Dependent Cytotoxic Assay. EBC-1 cells were incubated with serially diluted test articles: Q397-noV205C or non-binding antibody. For the technical control, Raji cells, which expresses CD20 on the cell surface, were incubated with serially diluted test articles: anti-CD20 (research grade recombinant anti-CD20 rituximab, catalog number A2009) or non-binding antibody (human IgG1 isotype control antibody, catalog number BE0297). Briefly, EBC-1 and Raji cells were added to a 96-well U-bottom plate at a density of 2.5×10^4 cells/well. Serially diluted test articles were added to the plate. The starting concentration of all test articles was 100 nM. A 3-fold dilution was performed for 9 concentration points and added to the test plate in duplicates. The plate was then incubated for 30 minutes at 37° C. At the end of the culture period, either heat inactivated or pooled human complement sera at a final concentration of 30% diluted in culture media (RPMI) was added to the plate. The plate was then incubated at 37 °C for two hours and cell lysis was assessed using CellTiter-Glo.

[2] = test system: EBC-1 cells; assay: ADCP effector function; type: cell-based, human; conditions: vs IgG1 isotype control
[3] = test system: EBC-1 cells; assay: ADCC effector function with PBMCs; type: cell-based, human; conditions: PBMCs from all donors, vs IgG1 isotype control
[4] = test system: phosphorylation of ERK1/2 and Akt1 in NCI-H441 cells; assay: Cell signaling assay (ELISA); type: cell-based, human; conditions: 10 μg/mL, 30 minutes
Experimental: Cell Signaling Assay. Briefly: NCI-H441 cells were cultured in standard culture media (RPMI-1640 Medium+10% fetal bovine serum) using conditions recommended by the vendor. For the cell signaling assay, NCI-H441 cells were seeded in 6-well plates at 300,000 cells per well in culture media. The next day, the cells were washed with serum-free medium twice and then replenished with 3 mL RPMI+0.2% fetal bovine serum.
The following day, cells were treated with 50 ng/ml HGF or 10 μg/mL of test articles and incubated for 30 minutes at 37° C. Following the 30-minute stimulation, the treatment medium was aspirated, the cells were washed 2 times in an excess volume of ice-cold phosphate buffered saline and collected by cell scraping on ice in 250 μL ice-cold lysis buffer per well and transferred to pre-chilled tubes. […] Lysates were thawed on ice for 1 hour with occasional vortexing, and protein concentrations were measured using the BCA protein assay according to the manufacturer's instructions. Lysates were diluted in lysis buffer to final concentration 0.5 mg/mL, and 100 μL of each sample was assessed using commercially available ELISA kits to detect total ERK1/2 and Akt1 and their phosphorylated forms. ELISAs were performed and analyzed according to the manufacturer's instructions. […]

[5] = test system: NCI-H441 cells; assay: Cell proliferation assay (CellTiter-Glo); type: cell-based, human; conditions: 10 nM, 4 days, serum starved
[6] = test system: EBC-1 cells; assay: Cell cycle arrest assay; type: cell-based, human; conditions: 10 nM, 24 hours
Experimental: Cell Cycle Arrest Assay. Briefly, EBC-1 cells were cultured in standard culture media (Eagle's minimum essential medium+10% fetal bovine serum) and conditions recommended by the vendor. Cells were plated at a density of 2×10^4 cells per well and incubated at 37° C. for 24 hours. […] Plates were incubated for 24 hours at 37° C. At the end of the culture period, test articles were removed from the plate. Cells were trypsinized, washed, and fixed in 70% ethanol for 30 minutes. Cells were washed, stained with propidium iodide staining using a cell cycle analysis kit (Abcam), and assessed by flow cytometry.

[7] = molecular target: recombinant human cMET (human, UniProt P08581 25-932, limits assumed); assay: BLI (Octet), antibody captured on AHC sensor, recombinant human cMET as analyte, pH 7.4; BLI, recombinant human cMET as analyte, pH 7.4
recombinant human cMET, sequence (P08581 25-932 limits assumed): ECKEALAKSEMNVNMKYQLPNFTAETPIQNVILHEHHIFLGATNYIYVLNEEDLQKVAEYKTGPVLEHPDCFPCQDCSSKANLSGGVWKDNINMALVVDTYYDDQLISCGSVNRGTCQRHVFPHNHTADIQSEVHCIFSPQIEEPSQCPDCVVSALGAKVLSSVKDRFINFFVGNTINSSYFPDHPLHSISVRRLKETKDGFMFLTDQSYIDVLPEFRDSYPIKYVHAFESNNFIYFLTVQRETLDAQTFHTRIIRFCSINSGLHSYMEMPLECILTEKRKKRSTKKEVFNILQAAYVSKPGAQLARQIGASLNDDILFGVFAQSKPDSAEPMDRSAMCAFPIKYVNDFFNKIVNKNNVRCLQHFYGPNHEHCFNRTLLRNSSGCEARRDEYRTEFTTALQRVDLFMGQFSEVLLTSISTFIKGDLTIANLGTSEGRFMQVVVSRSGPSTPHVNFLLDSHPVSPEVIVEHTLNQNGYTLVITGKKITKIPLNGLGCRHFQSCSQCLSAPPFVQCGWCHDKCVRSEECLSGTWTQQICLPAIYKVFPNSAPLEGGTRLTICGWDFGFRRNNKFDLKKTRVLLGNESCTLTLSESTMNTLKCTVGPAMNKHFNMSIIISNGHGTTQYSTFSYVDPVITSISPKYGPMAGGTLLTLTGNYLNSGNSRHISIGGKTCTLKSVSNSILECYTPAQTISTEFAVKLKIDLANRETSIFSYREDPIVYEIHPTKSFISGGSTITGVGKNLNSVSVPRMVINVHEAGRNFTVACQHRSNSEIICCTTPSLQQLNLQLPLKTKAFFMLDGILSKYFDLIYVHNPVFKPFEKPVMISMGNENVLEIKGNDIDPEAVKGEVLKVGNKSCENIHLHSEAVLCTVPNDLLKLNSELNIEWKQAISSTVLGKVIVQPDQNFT

[8] = molecular target: human cMET on cMET+ human cancer cells (human, UniProt P08581 25-1390); assay: cell-based or functional assay
human cMET on cMET+ human cancer cells, sequence (P08581 25-1390): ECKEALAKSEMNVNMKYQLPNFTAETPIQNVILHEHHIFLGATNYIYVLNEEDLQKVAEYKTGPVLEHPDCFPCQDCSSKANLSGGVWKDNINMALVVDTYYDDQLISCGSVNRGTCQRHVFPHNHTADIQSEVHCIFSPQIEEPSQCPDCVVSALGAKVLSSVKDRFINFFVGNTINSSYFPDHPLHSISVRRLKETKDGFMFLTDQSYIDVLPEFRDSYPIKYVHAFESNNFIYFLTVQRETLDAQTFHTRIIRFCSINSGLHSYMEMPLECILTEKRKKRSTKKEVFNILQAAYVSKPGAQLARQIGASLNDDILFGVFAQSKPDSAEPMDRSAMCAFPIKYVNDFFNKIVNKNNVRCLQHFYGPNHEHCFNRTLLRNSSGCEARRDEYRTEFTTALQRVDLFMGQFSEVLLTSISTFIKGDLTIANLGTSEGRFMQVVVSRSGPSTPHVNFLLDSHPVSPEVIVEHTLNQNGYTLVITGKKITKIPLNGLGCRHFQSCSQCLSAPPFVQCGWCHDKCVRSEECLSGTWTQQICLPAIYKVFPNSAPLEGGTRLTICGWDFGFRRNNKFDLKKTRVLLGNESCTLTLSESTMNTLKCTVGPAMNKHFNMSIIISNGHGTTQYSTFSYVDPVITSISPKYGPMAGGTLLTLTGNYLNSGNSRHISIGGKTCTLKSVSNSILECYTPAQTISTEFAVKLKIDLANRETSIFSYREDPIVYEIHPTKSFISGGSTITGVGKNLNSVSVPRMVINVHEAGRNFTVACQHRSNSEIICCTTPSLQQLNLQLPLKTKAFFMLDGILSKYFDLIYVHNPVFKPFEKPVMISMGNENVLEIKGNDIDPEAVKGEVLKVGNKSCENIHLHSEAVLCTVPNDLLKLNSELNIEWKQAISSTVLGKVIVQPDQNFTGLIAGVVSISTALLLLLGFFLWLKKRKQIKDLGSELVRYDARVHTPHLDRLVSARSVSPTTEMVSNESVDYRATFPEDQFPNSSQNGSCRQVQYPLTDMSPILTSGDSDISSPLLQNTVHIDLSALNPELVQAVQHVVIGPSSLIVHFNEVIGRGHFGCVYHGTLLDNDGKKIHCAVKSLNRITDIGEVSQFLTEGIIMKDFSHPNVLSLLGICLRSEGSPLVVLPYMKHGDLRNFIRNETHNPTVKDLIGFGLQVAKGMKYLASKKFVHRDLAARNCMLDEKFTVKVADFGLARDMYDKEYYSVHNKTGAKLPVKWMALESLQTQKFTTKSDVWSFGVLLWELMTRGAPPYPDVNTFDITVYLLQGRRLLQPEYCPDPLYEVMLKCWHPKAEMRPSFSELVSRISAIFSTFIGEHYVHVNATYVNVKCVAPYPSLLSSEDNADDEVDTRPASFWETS

[9] = molecular target: recombinant cynomolgus monkey cMET (cynomolgus monkey, UniProt A0A2K5UM36 25-932); assay: BLI (Octet), antibody captured on AHC sensor, recombinant cynomolgus monkey cMET as analyte, pH 7.4
recombinant cynomolgus monkey cMET, sequence (A0A2K5UM36 entry or part of it limits assumed): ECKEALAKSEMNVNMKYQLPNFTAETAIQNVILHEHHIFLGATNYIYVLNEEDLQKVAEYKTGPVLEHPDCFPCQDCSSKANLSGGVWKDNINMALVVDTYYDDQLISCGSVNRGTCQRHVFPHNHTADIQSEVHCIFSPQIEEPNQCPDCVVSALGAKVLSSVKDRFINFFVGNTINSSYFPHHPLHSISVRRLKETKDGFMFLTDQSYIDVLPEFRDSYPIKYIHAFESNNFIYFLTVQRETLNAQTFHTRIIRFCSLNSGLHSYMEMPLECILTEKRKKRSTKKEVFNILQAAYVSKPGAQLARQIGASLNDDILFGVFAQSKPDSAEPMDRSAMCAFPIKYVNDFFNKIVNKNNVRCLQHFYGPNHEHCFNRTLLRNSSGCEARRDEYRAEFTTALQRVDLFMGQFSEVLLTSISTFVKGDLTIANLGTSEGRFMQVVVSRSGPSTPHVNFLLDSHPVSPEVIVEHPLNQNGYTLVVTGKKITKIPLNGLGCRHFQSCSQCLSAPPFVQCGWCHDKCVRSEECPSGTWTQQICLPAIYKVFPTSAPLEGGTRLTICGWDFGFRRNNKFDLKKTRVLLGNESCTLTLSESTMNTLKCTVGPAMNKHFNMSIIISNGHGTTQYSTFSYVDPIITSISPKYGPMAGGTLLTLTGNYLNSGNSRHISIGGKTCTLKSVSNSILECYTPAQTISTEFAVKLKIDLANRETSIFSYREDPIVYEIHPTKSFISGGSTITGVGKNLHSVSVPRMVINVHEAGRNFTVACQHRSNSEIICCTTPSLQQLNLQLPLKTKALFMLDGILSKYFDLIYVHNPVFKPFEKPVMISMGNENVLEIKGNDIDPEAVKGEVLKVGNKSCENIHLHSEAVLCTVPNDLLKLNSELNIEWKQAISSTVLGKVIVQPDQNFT

[10] = molecular target: mouse cMET (mouse, UniProt P16056 25-931, limits assumed); assay: ELISA or BLI (the filing does not say which)
mouse cMET, sequence (P16056 25-931 limits assumed): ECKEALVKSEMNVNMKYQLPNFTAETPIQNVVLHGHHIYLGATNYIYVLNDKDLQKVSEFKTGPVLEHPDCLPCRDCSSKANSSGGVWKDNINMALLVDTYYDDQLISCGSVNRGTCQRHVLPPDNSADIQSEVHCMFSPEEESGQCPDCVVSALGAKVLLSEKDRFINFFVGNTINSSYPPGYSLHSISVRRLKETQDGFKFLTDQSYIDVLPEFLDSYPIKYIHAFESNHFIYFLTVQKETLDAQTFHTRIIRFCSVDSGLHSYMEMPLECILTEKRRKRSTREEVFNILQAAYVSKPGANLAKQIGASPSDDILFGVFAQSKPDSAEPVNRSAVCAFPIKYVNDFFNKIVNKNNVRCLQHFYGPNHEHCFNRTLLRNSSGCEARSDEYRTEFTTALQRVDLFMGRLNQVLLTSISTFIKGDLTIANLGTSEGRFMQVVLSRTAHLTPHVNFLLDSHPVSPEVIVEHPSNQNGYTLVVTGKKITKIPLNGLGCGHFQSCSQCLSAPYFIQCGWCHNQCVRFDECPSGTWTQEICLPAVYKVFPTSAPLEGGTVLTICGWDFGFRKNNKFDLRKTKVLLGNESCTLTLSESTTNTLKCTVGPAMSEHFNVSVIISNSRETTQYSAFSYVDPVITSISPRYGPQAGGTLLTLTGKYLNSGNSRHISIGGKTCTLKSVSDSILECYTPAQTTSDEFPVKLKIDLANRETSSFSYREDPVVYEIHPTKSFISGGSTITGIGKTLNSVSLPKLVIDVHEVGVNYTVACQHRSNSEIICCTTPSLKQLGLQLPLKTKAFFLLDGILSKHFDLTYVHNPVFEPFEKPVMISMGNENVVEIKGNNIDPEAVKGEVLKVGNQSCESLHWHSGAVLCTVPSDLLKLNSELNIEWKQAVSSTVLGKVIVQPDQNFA

[11] = molecular target: rat cMET (rat, UniProt P97523 25-935, limits assumed); assay: ELISA or BLI (the filing does not say which)
rat cMET, sequence (P97523 25-935 limits assumed): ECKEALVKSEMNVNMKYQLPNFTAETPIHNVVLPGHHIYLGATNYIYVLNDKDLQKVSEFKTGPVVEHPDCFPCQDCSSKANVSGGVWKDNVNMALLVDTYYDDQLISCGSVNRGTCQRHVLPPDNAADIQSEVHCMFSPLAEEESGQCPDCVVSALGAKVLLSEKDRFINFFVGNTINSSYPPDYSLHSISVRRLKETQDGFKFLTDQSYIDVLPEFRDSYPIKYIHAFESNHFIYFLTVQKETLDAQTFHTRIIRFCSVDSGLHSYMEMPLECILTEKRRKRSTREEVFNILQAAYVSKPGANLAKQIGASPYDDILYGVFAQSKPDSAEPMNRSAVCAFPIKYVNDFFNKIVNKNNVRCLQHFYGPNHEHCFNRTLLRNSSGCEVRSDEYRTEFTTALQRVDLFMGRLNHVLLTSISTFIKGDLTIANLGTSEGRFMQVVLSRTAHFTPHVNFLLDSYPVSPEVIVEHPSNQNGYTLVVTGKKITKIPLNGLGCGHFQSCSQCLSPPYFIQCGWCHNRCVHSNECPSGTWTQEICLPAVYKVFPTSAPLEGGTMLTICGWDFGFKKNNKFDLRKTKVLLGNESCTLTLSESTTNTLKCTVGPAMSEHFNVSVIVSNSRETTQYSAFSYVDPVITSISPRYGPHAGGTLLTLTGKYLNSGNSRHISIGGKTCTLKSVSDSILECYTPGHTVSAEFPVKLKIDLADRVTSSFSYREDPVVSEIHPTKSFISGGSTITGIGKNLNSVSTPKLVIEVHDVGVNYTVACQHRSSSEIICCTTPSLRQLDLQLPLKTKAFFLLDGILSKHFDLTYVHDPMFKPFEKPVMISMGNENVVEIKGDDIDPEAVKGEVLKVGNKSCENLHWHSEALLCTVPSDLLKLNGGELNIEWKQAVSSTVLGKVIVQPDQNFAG

Molecule: Q397-noV205C: Anti-cMET antibody of MYTX-011 without the V205C substitution; SEQ ID NO: 75 and SEQ ID NO: 81
- CDC activity (EBC-1 cell lysis) [1]: minimal to no; also recorded: did not induce EBC-1 cell lysis
- ADCP activity [2]: minimal to no; also recorded: no ADCP activity
- ADCC activity [3]: minimal to no; also recorded: Minimal ADCC activity
- phosphorylation of ERK1/2 or Akt1 [4]: minimal phosphorylation
- proliferation of cMET+ NCI-H441 cells [5]: did not increase

Molecule: CC[C@H](C)[C@@H]([C@@H](CC(=O)N1CCC[C@H]1[C@H](OC)[C@@H](C)C(=O)N[C@H](C)[C@@H](O)c1ccccc1)OC)N(C)C(=O)[C@@H](NC(=O)[C@@H](NC)C(C)C)C(C)C [MMAE, monomethyl auristatin E] (H-[NMeV]V[Dil][Dolaproine]-X1)
- percentage of cells in G2-M phase [6]: 68.6%

Further lines, results first:

- Kd [7]: 4 nM
- uptake of pHrodo-conjugated mAb in NCI-H1975 cells by live cell imaging, at 24 hours, over the parent mAb [8]: 3 fold
- Kd [9]: 9.44 nM
- binding result [10]: no binding
- binding result [11]: no binding
B1: MYTX-011 mAb (antibody, V domains shown)
VH: QVQLVQSGAEVKKPGASVKVSCKASGYTFTDYYMHWVRQAPGQGLEWMGRVNPNRRGTTYNQKFEGRVTMTTDTSTSTAYMELRSLRSDDTAVYYCARANWLDYWGQGTTVTVSS
VL: DIQMTQSPSSLSASVGDRVTITCSVSSSVSSIHLHWYQQKPGKAPKLLIYHTSNLASGVPSRFSGSGSGTDFTLTISSLQPEDFATYYCQVYSGYPLTFGGGTKVEIKR
notes: also called Q397

- binding result [10]: no binding
- binding result [11]: no binding
B2: MYTX-011 (antibody, IgG1, V domains shown)
VH: B1 VH
VL: B1 VL
modifications: vcMMAE (mc-vc-PAB-MMAE) linked to the engineered cysteine at position 98 of the light chain constant domain ("V205C"); DAR 2
notes: Antibody drug conjugate: humanized triple hinge IgG1 kappa antibody Q397 conjugated site-specifically to vcMMAE, drug to antibody ratio 2; also called anti-cMET pH-ADC; pH-ADC
